Data published in the FLAb antibody collection (doi:10.1101/2023.12.08.570889).
Substitutions are numbered along the chain they refer to.

B1: unnamed (protein)
chain 1: QMQLVESGGGVVQPGRSLRLSCAASGFTFRTYGMHWVRQAPGKGLEWVAVIWYDGSNKHYADSVKGRFTITRDNSKNTLNLQMNSLRAEDTAVYYCAREPPLFYSSWSLDNWGQGTMVTVSS
chain 2: SYVLTQPPSVSVAPGQTARITCGGNNLGSKSVHWYQQKPGQAPVLVVYDDSDRPSWIPERFSGSNSGNTATLTISRGEAGDEADYYCQVWDSSSDHVVFGGGTKLTVL
B2: unnamed (protein)
chain 1: QMQLVESGGGVVQPGRSLRLSCAASGFTFRTYGMHWVRQAPGKGLEWVAVIWYDGSNKHYADSVKGRFTITRDNSKNTLNLQMNSLRAEDTAVYYCARGPMALLYYRGFDYWGQGTMVTVSS
chain 2: B1 chain 2
B3: unnamed (protein)
chain 1: QMQLVESGGGVVQPGRSLRLSCAASGFTFRTYGMHWVRQAPGKGLEWVAVIWYDGSNKHYADSVKGRFTITRDNSKNTLNLQMNSLRAEDTAVYYCANLKDSRYSGSYYDYWGQGTMVTVSS
chain 2: B1 chain 2
B4: unnamed (protein)
chain 1: B2 chain 1 with G99D, P100E, M101S, A102T, L103G, L104D, R107Y, G108Y, F109M, Y111V
chain 2: B1 chain 2
B5: unnamed (protein)
chain 1: B2 chain 1 with G99P, M101Y, A102Y, L103Y, L104G, Y105T, Y106T, R107Y, G108Y
chain 2: B1 chain 2
B6: unnamed (protein)
chain 1: B1 chain 1 with E99G, P101F, L102S, F103R, S105D, S106Y, W107F, S108A, L109M
chain 2: B1 chain 2
B7: unnamed (protein)
chain 1: QMQLVESGGGVVQPGRSLRLSCAASGFTFRTYGMHWVRQAPGKGLEWVAVIWYDGSNKHYADSVKGRFTITRDNSKNTLNLQMNSLRAEDTAVYYCVRGSITWPTEYYLDYWGQGTMVTVSS
chain 2: B1 chain 2
B8: unnamed (protein)
chain 1: EVQLVQSGAEVKKPGESLRISCKGSGYTFSNYWISWVRQMPGKGLEWMGKIYPGDSYTNYSPSFQGQVTISADKSISTAYLQWSSLKASDTAMYYCARGYGIFDYWGQGTLVTVSS
chain 2: SYELTQPPSVSVSPGQTASITCSGDNIGDQYAHWYQQKPGQSPVLVIYQDKNRPSGIPERFSGSNSGNTATLTISGTQAMDEADYYCATYTGFGSLAVFGGGTKLTVL
B9: unnamed (protein)
chain 1: B8 chain 1 with T28S, I102L
chain 2: B8 chain 2
B10: unnamed (protein)
chain 1: B8 chain 1 with N31S, F103L
chain 2: B8 chain 2
B11: unnamed (protein)
chain 1: B8 chain 1 with N31S, D55N, Y100D, I102V
chain 2: B8 chain 2
B12: unnamed (protein)
chain 1: B8 chain 1 with T28S, N31S, I102L
chain 2: B8 chain 2
B13: unnamed (protein)
chain 1: B8 chain 1 with N31D, I102L
chain 2: B8 chain 2
B14: unnamed (protein)
chain 1: B8 chain 1 with T28S, N31S, I102V
chain 2: B8 chain 2
B15: unnamed (protein)
chain 1: B8 chain 1 with N31S
chain 2: B8 chain 2
B16: unnamed (protein)
chain 1: B8 chain 1 with Y100E, I102L
chain 2: B8 chain 2
B17: unnamed (protein)
chain 1: B8 chain 1 with N31D
chain 2: B8 chain 2
B18: unnamed (protein)
chain 1: B8 chain 1 with I102L
chain 2: B8 chain 2
B19: unnamed (protein)
chain 1: B8 chain 1 with T28S, N31S, Y100T, I102L
chain 2: B8 chain 2

Target: TSLP, Q969D9
Assay: Kd (SPR)

Kd [nM] | Binder
0.203 | B1
183 | B2
523 | B3
229 | B4
300 | B5
557 | B6
426 | B7

Target: TNFRSF9, Q07011
Assay: Kd (SPR)

Kd [nM] | Binder
86.4 | B8
145 | B9
59.4 | B10
32.9 | B11
51.1 | B12
84.1 | B13
228 | B14
58.6 | B15
51 | B16
120 | B17
117 | B18
150 | B19
